Two molecules from article PMC4930772, “Crystal structure of a PP2A B56-BubR1 complex and its implications for PP2A substrate recruitment and localization” (Protein & Cell, 2016) can be followed below.

Changes are numbered by the printed parent chain. In names and notes the source's numbering stands.

The term Kd denotes the equilibrium constant for the complex coming apart. The low end stands for higher affinity, the high end for lower affinity. Broadly, the stoichiometry N is the number of molecules, sites or subunits per partner or assembly.

This test deals with human PP2A B56γ1(30–380) (human, UniProt Q13362-2 30-380). Nature of the test: ITC; B56γ1 in the cell at 0.03 mmol/L, BubR1 protein or peptide at 0.7 mmol/L injected (20 x 1.5 µL); room temperature; 20 mmol/L Tris-HCl pH 8.0, 200 mmol/L NaCl; one-site model. Conditions: both partners purified.

B1: human BubR1(647–720)-3D (S670D/S676D/T680D) (domain or fragment)
chain: KTSEDQQTACGTIYSQTLSIKKLDPIIEDDREADHSSGFSGSSASVASTSSIKCLQIPEKLELTNETSENPTQS
notes: also called BubR1-3D; source: E. coli BL21 (DE3), purified (Glutathione Sepharose 4B, TEV cleavage, Hitrap Q HP)
In the case of B1, the Kd is 2.27 ± 0.37 µM, the dH is -119 ± 3.47 kJ/mol and the “stoichiometry N” value was found to be 1.02 ± 0.02.

B2: human BubR1(647–720; E678A/T680A/H681A) (domain or fragment)
chain: B1 chain with D24S, D30S, E32A, D34A, H35A
notes: also called BubR1-AAAA; source: E. coli BL21 (DE3), purified the same way as wild type
For B2, the affinity, expressed as Kd, was 10.6 ± 1.72 µM; the dH is -40.8 ± 2.68 kJ/mol; the “stoichiometry N” value turned out to be 1.02 ± 0.05.
